From US20200291109A1, “Composition to induce bone marrow stem cell mobilization” (Universitá degli Studi di Padova, priority 2014, published 2020)

B1: G-CSF: granulocyte colony stimulating factor, growth factor used for stem cell mobilization (protein, UniProt P09919 31-207, looked up)
Granulocyte …: TPLGPASSLPQSFLLKCLEQVRKIQGDGAALQEKLVSECATYKLCHPEELVLLGHSLGIPWAPLSSCPSQALQLAGCLSQLHSGLFLYQGLLQALEGISPELGPTLDTLQLDVADFATTIWQQMEELGMAPALQPTQGAMPAFASAFQRRAGGVLVASHLQSFLEVSYRVLRHLAQP
B2: oncostatin M (OSM): 28-kDa glycoprotein of cytokine family, macrophage derived factor (protein)
chain: AAIGSCSKEYRVLLGQLQKQTDLMQDTSRLLDPYIRIQGLDVPKLREHCRERPGAFPSEETLRGLGRRGFLQTLNATLGCVLHRLADLEQRLPKAQDLERSGLNIEDLEKLQMARPNILGLRNNIYCMAQLLDNSDTAEPTKAGRGASQPPTPTPASDAFQRKLEGCRFLHGYHRFMHSVGRVFSKWGESPNRSRR

Experiments:
LKS stem cells = experiment: G-CSF alone induced mobilization of LKS stem cells in diabetic mice; type: in vivo; conditions: G-CSF only
Excerpt: In order to obtain in vivo validation of such mechanism, inhibition of oncostatin M (OSM) has been carried out in mice induced with diabetes by injecting streptozotocin as mentioned above and analyzed after 4 weeks from hyperglycemia development, by intraperitoneal injection of a polyclonal neutralizing antibody (AF-495-NA, R&D Systems) specific for murine oncostatin M (OSM), before beginning a marrow stimulation cycle by a subcutaneous injection of G-CSF ([…] for 4 consecutive days).

[1] = test system: SDF-1α/CXCL12 expression in human mesenchymal stem cells; experiment: Induction of SDF-1α/CXCL12 gene expression in human mesenchymal stem cells by oncostatin M (qPCR); type: cell-based; conditions: increasing concentrations of OSM
Method: Therefore, the effect of such media on the gene expression of SDF-1α/CXCL12 in human (stromal) mesenchymal stem cells by qPCR was evaluated (primers forward ATGCCCATGCCGATTCTT [SEQ ID NO. 5]; reverse […] [SEQ ID NO. 6]; reference sequence NCBI NM_000609.6).

| Molecule | mobilization of LKS stem cells (LKS stem cells) | expression of SDF-1α/CXCL12 [1] |
| --- | --- | --- |
| B1 | not able to induce mobilization | – |
| B2 | – | progressively increase the expression |
